PMC8184839

Legend:
[1] = biological target: cyclin D1 with the CDK6n-CDK4c chimera (UniProt P24385); experiment: recruitment to a CDK tethered at the inner nuclear membrane, with FRAP; as a4 but with 6 µM palbociclib overnight and throughout, or 6 µM palbociclib, ribociclib or abemaciclib added acutely about 4-5 min after photobleaching
[2] = biological target: CDK2-mTurquoise-Δ50 lamin A (UniProt P24941); experiment: recruitment to a CDK tethered at the inner nuclear membrane, with FRAP; live RPE-1 cells with mVenus-cyclin and CDK-mTurquoise-Δ50 lamin A, p21 and p27 depleted by siRNA co-knockdown; recovery of mVenus after photobleaching; 37 °C

mVenus-cyclin E1, sequence (P24864 whole entry): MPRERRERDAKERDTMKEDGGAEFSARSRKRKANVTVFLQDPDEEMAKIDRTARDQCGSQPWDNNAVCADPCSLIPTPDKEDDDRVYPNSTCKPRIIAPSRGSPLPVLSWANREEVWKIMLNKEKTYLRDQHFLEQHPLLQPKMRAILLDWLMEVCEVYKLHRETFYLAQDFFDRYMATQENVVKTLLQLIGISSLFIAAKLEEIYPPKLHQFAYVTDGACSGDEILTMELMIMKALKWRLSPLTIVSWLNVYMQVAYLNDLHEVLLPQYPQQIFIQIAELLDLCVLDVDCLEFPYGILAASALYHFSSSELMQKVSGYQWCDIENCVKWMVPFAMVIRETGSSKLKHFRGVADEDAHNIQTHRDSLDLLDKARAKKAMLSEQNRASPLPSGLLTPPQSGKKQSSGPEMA
cyclin D1 with the CDK6n-CDK4c chimera, sequence (P24385 whole entry, looked up, stated change not applied): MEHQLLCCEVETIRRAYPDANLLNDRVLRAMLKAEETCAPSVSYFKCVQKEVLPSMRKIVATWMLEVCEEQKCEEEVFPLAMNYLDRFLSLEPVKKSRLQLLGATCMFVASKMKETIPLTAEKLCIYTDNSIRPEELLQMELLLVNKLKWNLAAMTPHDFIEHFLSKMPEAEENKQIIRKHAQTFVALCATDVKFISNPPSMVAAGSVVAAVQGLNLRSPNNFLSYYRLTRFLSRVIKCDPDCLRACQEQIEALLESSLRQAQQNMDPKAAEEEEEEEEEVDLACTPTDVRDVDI
mRuby3-p21, sequence (P38936 whole entry): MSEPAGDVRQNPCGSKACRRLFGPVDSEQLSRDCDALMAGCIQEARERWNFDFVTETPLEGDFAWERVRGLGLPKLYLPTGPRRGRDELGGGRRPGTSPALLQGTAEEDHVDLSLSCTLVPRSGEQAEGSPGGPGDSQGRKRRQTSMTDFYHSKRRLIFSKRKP

Substance	fold decrease in fold change of the off-rate with palbociclib against DMSO [1]	dissociation t-half [2]
mRuby3-p21 (from UniProt P38936 1-164) (natural protein)	10 fold	
mVenus-cyclin E1 (from UniProt P24864 1-410) (natural protein; other documents disagree on this pair)		3 min
